Source: the supplement of paper PMC12455559

Assay: purified protein yield per well (BCA); higher = higher soluble expression
In short: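 Values under 25 ug (0.1 mg/mL) are below the detection threshold. Purified protein yield per well was quantified with the Pierce Rapid Gold BCA kit after candidate enzymes, expressed in E. coli C41(DE3), were captured on Ni-charged magnetic beads and released by SUMO protease on an OT-2 robot. Cultures were 2 mL autoinduction with 100 µg/mL kanamycin, run 2 h at 37 °C and then 40 h at 18 °C.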
In the case of “RPAPEAAAPQAAQGNPYQRGPDPTVAAIEASRGPFATAQMSVAPGNGFNGGVVYYPTDTSLGTWGALAIVPGYTALCADEEAWMGPWLSSFGFAVICVETNTRTDDAGTRASELLAGLDWLTTQSPVRAEIDPNRLSVLGHSAGGAGAIIAAERRPALKAMIGLAPGFPGNGLSMATDTVPTLVVGGQNDTVVTPSYLSGLYATLPAGTQSGFAQIAGADHVYYTRPNNVEMKLLIPWLKVFVDSDTRYTQFLCPALPDPSGISAYQPKCPYVPTGGTTPPPGGQSVHAVGAGKCLTVPGADPAAGTQTDISTCDGGTGQVWTRTSSGQLTVSTGGTTMCLDAAGAGVSPGTRVQVWPCNGGSNQQWRVNANGTITGAQSGLCLDVTGASTANGALVELWTCNGGSNQQWALQ [TEP183]”, the “purified protein yield per well” value is reported as under 25 µg. For “QVGPDPTSASLNATAGPFSVSTASVISPRGFGGGTIYYPTTTGRYGVVAISPGFTATQSSIAWLGRRLATHGLVVITMNTNSTYDQPSSRATQLMAALNYVVNSSSSTVRARVDSSKLAVAGHSMGGGGALIAAENNPTLKASLPLTPWNSSTNFSDVRVPTLIVGADGDSVASVSRHARPFYASLPSNTFKAYAELNGASHFTPNSTSTPIGRYGVAWMKRFVDADTRYSPFLCGAAHQSYATSLVFDRYSQNCPY [ESM125]”, the “purified protein yield per well” value was under 25 µg. In the case of “NNPAPTPTPTPTPGTPSAYQRGPAPSVSFLQASRGDLSVRTSRVSSFTSGFGGGTIHYPTGTTGTMAAIVVIPGYVSAESSIEWWGPKLASYGFVVMTIDTNSGFDQPPSRARQINSALDYLVSQNSSSRSPVRGMIDTNRLGVVGWSMGGGGTLRVAEEGRIKAAIPLAPWDTTNFRDNYTPTLIFACQSDVIAPVNQHASPFYNQIPSSTDKAFVELSGGSHYCGNGGGVYNNVLGRLGVSWMKRHLDQDTRYDQFLCGPNHESDSRISEYRGNCSN [ESM126]”, the “purified protein yield per well” value is reported as under 25 µg. With “QTSDPTSASLNASAGPLSVSTASVTAPRGFGGGTIYYPTTQARYGVIAISPGFTATETSIAWLGRRIATHGFVVITLNTLTTLDQPASRANQLMAALTYVVNSSSSAVKARIDTARLAVAGHSMGGGGALIAARDNPTLKASYPLTPWNSSTSFSTVRVPTMIVGADGDTIAPVATHARPFYASLPSATSKAYGELNNGTHFSPNSTNTPIGRYGVAWMKRFVDGDTRYSTFLCGTEHTRYATALVFDRFNQNCPY [ESM191]” the “purified protein yield per well” value was under 25 µg. For “QTNPYARGPNPTASSLEASTGPFAYRSFTVSRPSGYGAGTVYYPTNAGGTVGAIAIVPGYTARQSSINWWGPRLASHGFVVITIDTNSTLDQPSSRSRQQMAALQQVASLNSTSSSPIYGKVDTSRMGVMGWSMGGGGSLISARDNPSLKAAAPQAPWNTSSSFSSMTVPTLIFACESDSIAPVNSHASPMYNSMRSNPRQYLEINNGSHSCANSGNSNQALIGKKGVAWMKRYMDNDTRYSTFACQNPNSTRVSDFRVANCS [ESM094]”, the “purified protein yield per well” value was under 25 µg. In the case of “CDSILSQSLTNTGPYNVLSINESDGIRNGQHYNGATIFYPEGNLTNLASMVFVPGYSNTQLSIQNWGFFLASHGIVTMTIGTNSLLDSHIKRKDALLDALVTVKQENVRVSSPLYNSLDTLKLALGGFSKGGGGAQLAASVGQNIKAIIALYPWLENISSSDLNHNVPVLIVSGSLDIIAPPSLHADVHYMYTPQTTNKLKYELAFGTHDPLTGPNAGSGEVGKKTLSWLQTFLLSDTCFCPYLLDTPNNASIYMSNLNCTEIGTNTNNLQSNTEKKLVKIIDVFGREVSPKKNMILFYVYDNQSVKKIIIK [TEP094]”, the “purified protein yield per well” value is reported as under 25 µg. With “DGYERGPDPTPTRLLGNGSFSVSTTSVSSLVLGFGGGTIYYPTSTSEGTFGGVVLSPGFTATSGSYAGVARRVASHGFVVLVIDTNTIYDQPDSRGRQILDAVDYLTEDAPSAVASRLDESRIAVSGHSMGGGGTLYAADNRTSVIKTAVALQPWHTDKTWPGVDIPTMIIGAENDAIAPVSSHSIPFYASLSGAPEKAYGEVNNAGHLIANTNDDWQGRLFVSWLKRYLDEDLRYEAFLCPAPSSISLSDYRDTCPG [DP030]” the “purified protein yield per well” value was under 25 µg. In the case of “QDNSQGRYRPEGRQVGLAIGREFDERLYEVRTYEPEVGAEAFAGAMVFYPLTLSFDPPNGAVAFVPGFRAPASVYEWWGPALASLGYSVFILETNTPTDALAARADALIAAVDLIKAENQNPDAPVANKIDPEKIAIMGHSMGGGASLVAATQMGDSIKAVIPLALYCCEPGQSFSGDYGSLTLPTMIIASAEDEVAPPAEHAKLLYDSIGGSKTYVEFARGDHMFISNSGDQKATLGRFVLAFLKDILDGR [TEP019]”, the “purified protein yield per well” value is reported as under 25 µg. With “HGFNGGYIYYPTDTSQTFGAVAIVPAYTALFADEEAWMGPRLASFGFVVIGIETNSREDWDRARGAQLLAGLDYLTQHSAVRTRIDARRLAVIGHSMGGGGAFAAAARRPSLRAVVGLTPYFPSGDLATIRVPTLIIGGQNDTTVTPSYLERLYASLPTRTPSAYVMLADADHLFPTKPNPDQMRVLVPWLKIFVDKDVRYTRFLCPLADRSGISQYQVTCPLVPTV [TEP043]” the “purified protein yield per well” value was under 25 µg. With “VENGPAPSLASIQADGPYAVSTQTVSGSGFGGGTVYSPNTAGKYAVVAVCPGFTATQSSIAAISRRLATHGFVVVTINTTSVYDFPSSRANQLLAALRTVTALATGPVAGKMDTTRQGVAGWSMGGGGAMLAAGMTPGLKGGVAFAPWSQSNNVSRSAVPMAYLAGTADTVAPAGSHASVFYNATPATTKKLLGVITGADHNFPKTASQPASYTQVAWMKRFLDGDTRYAQFLKGDTRFTTFRSTGPF [ESM107]” the “purified protein yield per well” value was under 25 µg. For “QNCDSLLLESITNPGPYSVNDIDESAGIRNGSDYSGSTIYYPVNSNGNYASIVLVPGYMNTESTIQNWGPFLASHGIVTMTIGTNSLTDNHIQRKDALLDAIISLKNENNRLASPLYAKLATTTIAVGGFSKGGGGAQLAAVDAPDLKAVVALYPWLDNPSQSDLNHNIPVIIVSGELDLIAPPSSHADVHYDYTPNTTNKLKYEVEFASHDALSGPTGGNGEVGKRVFSWLQTYLLDDSCYCPLMLVPATTSSEYITNIVCDNVTQVSEFSYANKKLIKVIDLLGREAKENKNTPLFYIYDDGTVEKKIIIE [TEP087]”, the “purified protein yield per well” value was under 25 µg. In the case of “CADRPPVQDEDPAPTAASLAAPLGPYRTSTATVPRGLTEAFGGGTIYYPSGRPRGDTFGGVIIAPGRNGNQGGMAWYGPLLASRGFVVFAIDTLHLKDRPAARAHELEAAMTYLTVRSPVATLVDADRLAVMGHSFGGGAALETAADRPTLRAAIPLMPYDKGREFSNVRVPTLVVAAQNDKIAPVSRHARRFYRSIPASSGKGYLEIAGTTHSSPKKPNTTLAAYVIAWLKRYVDGDERYERFLCPGPIDDPSVALYRNPCS [TEP060]”, the “purified protein yield per well” value is reported as under 25 µg. With “QIGPDPTSSSLNATSGPFAVSTSNVVLARGFGGGTIYYPTTTGRYGVVAISPGFTATESSVAWLGRRLATHGLVVITINTNSTLDQPASRATQLMAALNHVVNSASSTVRSRVDSTRLAVAGHSMGGGGALIAAENNPTLKAALPLTPWNLSSSFTQVQVPTLIVGADGDSVASVAVHARPFYASLPATTFKAYAELNGASHFTPNSTNTPIGRYGTAWMKRFVDADSRYSPFLCGAPHEAYATALVFDRYNQNCPY [DP027]” the “purified protein yield per well” value was under 25 µg. In the case of “ADNPYERGPAPTRASIEAPRGPYAVSQTSVSSLLVSGFGGGTIYYPTSTSDGTFGAVVVTPGFTATESSMAWLGPRLASQGFVVFTIDTLTTLDQPDSRGRQMLAALDYLTERSSARTRIDGTRLGVIGHSMGGGGTLEAAKSRPSLKAAIPLTPWNLDKTWPEVTTPTLVVGADGDTVAPVATHAKPFYSTLPSTTDRAYLELNNATHFAPNISNTTIAKYSVSWLKRFIDDDTRYEQFLCPLPEPDRDIEEYRGTCPLGG [TEP162]”, the “purified protein yield per well” value is reported as under 25 µg. In the case of “VQNGPTPTLADLKKDGPYAVTSQTVAGNGFGGGTVYSPNTAGKYALVAVCPGFVSAQSSMTEMGRRLATHGFVVVTIATNTPFDFPSSRATQLLAALKTVAALNTGAVAGKVDTSRQVVSGWSMGGGGTLEAAGITPGLVAGVAFAPWHTSTAKMTSLTVPVAIIGGTSDTIAPVSGHSQKFYDAIPKTTKKMLGVITGADHFFPTKASEPTSYSNISWVKRFADGDTRYSPFLTGQDAAWASFVSTGPF [ESM118]”, the “purified protein yield per well” value is reported as under 25 µg. With “DSQNPYERGPVPTLESITAESGPFAIGSVTVPAGSGQGFNSGTVYYPTDTSKGTFGAIAIMPGFLASQSDIAWYGPRLASHGFVVMTLNTSALWDFPADRSRQQLAALTYLTAQSTVKNRIDPGRLAVMGWSMGGGGSLQSAASTPSLKAAIPLAPWDLSNVSSRITVPTMIFGADGDTVASVDDFARPFYNGLANAPDKSLIVLKGTDHFTFAKPNTTIARYSVSWLKRFVDNDTRYDQFLCPTPNDPNTVVLQITCPL [DP028]” the “purified protein yield per well” value was under 25 µg.
